# From patent US20050037969A1 (ARBOR VITA, published 2005)
# Ends that are not written are not given here. * marks the point of attachment. Biotin = O=C1N[C@H]2[C@H](CS[C@H]2CCCCC(=O)*)N1
# T1: GST-CASK PDZ domain fusion protein (Homo sapiens, UniProt O14936 486-575)
# T1 construct: also called Homo sapiens CASK protein
# T1 sequence: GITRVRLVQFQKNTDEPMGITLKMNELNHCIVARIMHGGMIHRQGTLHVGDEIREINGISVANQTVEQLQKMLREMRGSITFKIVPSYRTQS
# T2: GST-LIM protein PDZ domain fusion protein (Human, UniProt Q96HC4 2-85)
# T2 construct: also called Human LIM protein; not shown: glutathione S-transferase encoded by vector pGEX-3X (Pharmacia)
# T2 sequence: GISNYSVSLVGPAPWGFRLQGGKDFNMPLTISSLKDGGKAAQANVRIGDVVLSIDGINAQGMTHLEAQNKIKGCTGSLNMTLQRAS
# T3: GST-TAX-IP2 PDZ domain fusion protein (human, UniProt O14908 129-216)
# T3 construct: also called TAX-1P2; TAX2; not shown: glutathione S-transferase encoded by vector pGEX-3X (Pharmacia)
# T3 chain: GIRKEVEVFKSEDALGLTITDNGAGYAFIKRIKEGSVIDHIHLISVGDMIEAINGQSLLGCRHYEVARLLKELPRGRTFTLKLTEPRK
# T4: GST-cytohesin binding protein PDZ domain fusion protein (Homo sapiens (Human), UniProt O60759 74-165)
# T4 construct: also called CBP; not shown: glutathione S-transferase encoded by vector pGEX-3X (Pharmacia)
# T4 sequence: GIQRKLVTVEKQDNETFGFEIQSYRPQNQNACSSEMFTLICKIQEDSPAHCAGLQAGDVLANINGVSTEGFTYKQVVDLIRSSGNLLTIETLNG
# T5: GST-DLG5 (p-dlg) PDZ domain fusion protein (Human, UniProt Q8TDM6 1343-1583)
# T5 construct: also called Human discs large protein p-dlg; not shown: glutathione S-transferase encoded by vector pGEX-3X (Pharmacia)
# T5 sequence: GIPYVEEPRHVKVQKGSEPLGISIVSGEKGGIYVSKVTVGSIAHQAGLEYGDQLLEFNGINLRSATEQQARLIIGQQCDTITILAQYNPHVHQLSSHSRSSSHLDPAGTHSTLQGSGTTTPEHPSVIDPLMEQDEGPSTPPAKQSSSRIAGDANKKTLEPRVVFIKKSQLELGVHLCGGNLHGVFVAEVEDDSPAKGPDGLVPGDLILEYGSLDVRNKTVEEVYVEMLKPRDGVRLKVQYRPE
# T6: GST-mouse syntenin fusion protein (Mus musculus, UniProt O08992 108-286)
# T6 construct: also called Mus musculus Syntenin; not shown: glutathione S-transferase encoded by vector pGEX-3X (Pharmacia)
# T6 chain: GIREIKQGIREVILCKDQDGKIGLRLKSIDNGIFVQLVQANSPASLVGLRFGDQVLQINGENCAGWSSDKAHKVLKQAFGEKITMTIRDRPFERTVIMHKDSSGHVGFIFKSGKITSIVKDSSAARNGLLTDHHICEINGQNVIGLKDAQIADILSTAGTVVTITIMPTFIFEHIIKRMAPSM
# T7: GST-TAX-IP40 PDZ domain fusion protein (human, UniProt Q6B4M5 150-252 (rat entry))
# T7 construct: also called TAX40; not shown: glutathione S-transferase encoded by vector pGEX-3X (Pharmacia)
# T7 sequence: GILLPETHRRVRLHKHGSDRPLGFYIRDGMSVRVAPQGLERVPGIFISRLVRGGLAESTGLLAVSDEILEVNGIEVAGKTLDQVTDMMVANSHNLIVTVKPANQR
# T8: GST-DVL1 PDZ domain fusion protein (human, UniProt O14640 247-339)
# T8 construct: also called human dishevelled segment polarity protein homolog; not shown: glutathione S-transferase encoded by vector pGEX-3X (Pharmacia)
# T8 sequence: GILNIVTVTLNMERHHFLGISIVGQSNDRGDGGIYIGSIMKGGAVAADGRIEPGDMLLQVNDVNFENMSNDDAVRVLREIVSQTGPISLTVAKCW
# T9: GST-KIAA0303 PDZ domain fusion protein (Homo sapiens (Human), UniProt O15021 1138-1228)
# T9 construct: also called K303; not shown: glutathione S-transferase encoded by vector pGEX-3X (Pharmacia)
# T9 sequence: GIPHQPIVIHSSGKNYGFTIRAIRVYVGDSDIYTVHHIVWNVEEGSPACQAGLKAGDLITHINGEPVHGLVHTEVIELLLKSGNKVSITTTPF
# T10: X11β PDZ-GST fusion protein (Rattus norvegicus (Rat), UniProt O35431 560-745)
# T10 construct: Order of GST and PDZ part and limits not seen in the excerpts
# T10 chain: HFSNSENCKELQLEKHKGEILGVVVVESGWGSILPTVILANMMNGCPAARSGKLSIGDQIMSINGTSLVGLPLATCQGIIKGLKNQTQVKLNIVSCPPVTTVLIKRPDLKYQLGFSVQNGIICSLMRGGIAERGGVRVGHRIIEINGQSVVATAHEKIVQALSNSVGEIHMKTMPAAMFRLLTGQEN
# T11: TAX-IP33 PDZ-GST fusion protein (Homo sapiens (Human), UniProt O14910 103-193)
# T11 construct: Order of GST and PDZ part and limits not seen in the excerpts
# T11 sequence: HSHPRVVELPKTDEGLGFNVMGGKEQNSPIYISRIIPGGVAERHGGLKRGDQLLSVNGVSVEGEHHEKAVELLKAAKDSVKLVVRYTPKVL
# T12: K559 PDZ-GST fusion protein (Homo sapiens (Human), UniProt Q9Y6V0 4489-4593)
# T12 construct: Order of GST and PDZ part and limits not seen in the excerpts
# T12 sequence: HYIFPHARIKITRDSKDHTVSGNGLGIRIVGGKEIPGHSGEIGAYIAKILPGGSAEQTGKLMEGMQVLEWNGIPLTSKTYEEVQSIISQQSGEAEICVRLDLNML
# T13: SP short PDZ-GST fusion protein (Homo sapiens (Human), UniProt O43464 350-435)
# T13 construct: The label SP short is not explained in the excerpts
# T13 sequence: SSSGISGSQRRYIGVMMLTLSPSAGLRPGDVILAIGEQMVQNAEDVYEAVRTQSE
# T14: GEF PDZ-GST fusion protein (Homo sapiens (Human), UniProt Q8TEU7 293-400)
# T14 construct: The label GEF is not explained in the excerpts
# T14 sequence: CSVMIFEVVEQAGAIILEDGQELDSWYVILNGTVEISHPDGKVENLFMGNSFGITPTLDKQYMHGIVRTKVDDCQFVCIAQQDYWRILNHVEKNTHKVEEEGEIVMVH
# B1: Clasp-4 C-terminal peptide AA3L, biotinylated (peptide)
# peptide: Biotin-CAISGTSSDRGYGSPRYAEV
# notes: also called AA3L-V
# B2: CD62E C-terminal peptide AA48L (peptide)
# peptide: Biotin-SSSQSLESDGSYQKPSYIL
# notes: Only the last four residues are seen in the excerpts
# B3: CD114 (G-CSFR) C-terminal peptide AA27L (peptide)
# peptide: Biotin-LNFPLLQGIRVHGMEALGSF
# notes: as for B2
# B4: Clasp-1 C-terminal peptide AA1L, biotinylated (peptide)
# peptide: Biotin-ISKATPALPTVSISSSAEV
# notes: also called AA1L-R
# Molecular target: T1, GST-CASK PDZ domain fusion protein
# Assay: A/G assays
row,binding result,Binder
1,no binding,B1
2,no binding,B2
3,no binding,B3
4,no binding,B4

# Molecular target: T2, GST-LIM protein PDZ domain fusion …
# Assay: A/G assays
row,binding result,Binder
1,no binding,B1
2,no binding,B2
3,no binding,B3
4,no binding,B4

# Molecular target: T3, GST-TAX-IP2 PDZ domain fusion protein
# Assay: A/G assays
row,binding result,Binder
1,no binding,B1
2,no binding,B2
3,no binding,B3
4,no binding,B4

# Molecular target: T4, GST-cytohesin binding protein PDZ …
# Assay: A/G assays
row,binding result,Binder
1,no binding,B1
2,no binding,B2
3,no binding,B3
4,no binding,B4

# Molecular target: T5, GST-DLG5 (p-dlg) PDZ domain fusion …
# Assay: A/G assays
row,binding result,Binder
1,no binding,B1
2,no binding,B2
3,no binding,B3
4,no binding,B4

# Molecular target: T6, GST-mouse syntenin fusion protein
# Assay: A/G assays
row,binding result,Binder
1,no binding,B1
2,no binding,B2
3,no binding,B3
4,no binding,B4

# Molecular target: T7, GST-TAX-IP40 PDZ domain fusion protein
# Assay: A/G assays
row,binding result,Binder
1,no binding,B1
2,no binding,B2
3,no binding,B3
4,no binding,B4

# Molecular target: T8, GST-DVL1 PDZ domain fusion protein
# Assay: A/G assays
row,binding result,Binder
1,no binding,B1
2,no binding,B2
3,no binding,B3
4,no binding,B4

# Molecular target: T9, GST-KIAA0303 PDZ domain fusion protein
# Assay: A/G assays
row,binding result,Binder
1,no binding,B1
2,no binding,B2
3,no binding,B3
4,no binding,B4

# Molecular target: T10, X11β PDZ-GST fusion protein
# Assay: A/G assays
row,binding result,Binder
1,no binding,B1
2,no binding,B2
3,no binding,B3
4,no binding,B4

# Molecular target: T11, TAX-IP33 PDZ-GST fusion protein
# Assay: A/G assays
row,binding result,Binder
1,no binding,B1
2,no binding,B2
3,no binding,B3
4,no binding,B4

# Molecular target: T12, K559 PDZ-GST fusion protein
# Assay: A/G assays
row,binding result,Binder
1,no binding,B1
2,no binding,B2
3,no binding,B3
4,no binding,B4

# Molecular target: T13, SP short PDZ-GST fusion protein
# Assay: A/G assays
row,binding result,Binder
1,no binding,B1
2,no binding,B2
3,no binding,B3
4,no binding,B4

# Molecular target: T14, GEF PDZ-GST fusion protein
# Assay: A/G assays
row,binding result,Binder
1,no binding,B1
2,no binding,B2
3,no binding,B3
4,no binding,B4
